Experimental data from PMC8092395, “Development of Stable Chimeric IL-15 for Trans-Presentation by the Antigen Presenting Cells” (Frontiers in Immunology, 2021).

Key:
[1] = target: human chimeric IL-15 (huIL-15 + huIgHG2 chimera; IL-2SP-N72DIL-15CDS-K322AIgHg2) (human); test: SEC; analytical size-exclusion HPLC, Zorbax Bio Series GF-250 column, PBS mobile phase, 1 ml/min; 20 µl of 1 μg/ml chimeric IL-15; OVA and BSA as standards
[2] = target: human chimeric IL-15 (huIL-15 + huIgHG2 chimera; IL-2SP-N72DIL-15CDS-K322AIgHg2) (human); test: non-reducing SDS-PAGE; purified chimeric IL-15 loaded on SDS-PAGE under non-reducing or reducing conditions, Coomassie stain, densitometry of dimer vs. monomer
[3] = target: the molecule itself; test: as above

Molecule	stoichiometry N [1]	stoichiometry N [2]	stoichiometry N [3]
human chimeric IL-15 (huIL-15 + huIgHG2 chimera; IL-2SP-N72DIL-15CDS-K322AIgHg2) (Fc fusion)	2	2	–
mouse chimeric IL-15 (mIL-15 + mIgHG2a chimera) (Fc fusion) GIHVFILGCVSVGLPKTEANWIDVRYDLEKIESLIQSIHIDTTLYTDSDFHPSCKVTAMNCFLLELQVILHEYSNMTLNETVRNVLYLANSTLSSNKNVAESGCKECEELEEKTFTEFLQSFIRIVQMFINTSGSAKTTAPSVYPLAPVCGDTTGSSVTLGCLVKGYFPEPVTLTWNSGSLSSGVHTFPAVLQSDLYTLSSSVTVTSSTWPSQSITCNVAHPASSTKVDKKIEPRGPTIKPCPPCKCPAPNLLGGPSVFIFPPKIKDVLMISLSPIVTCVVVDVSEDDPDVQISWFVNNVEVHTAQTQTHREDYNSTLRVVSALPIQHQDWMSGKEFKCKVNNKDLPAPIERTISKPKGSVRAPQVYVLPPPEEEMTKKQVTLTCMVTDFMPEDIYVEWTNNGKTELNYKNTEPVLDSDGSYFMYSKLRVEKKNWVERNSYSCSVVHEGLHNHHTTKSFSRTPGK	–	–	2
